The text below walks through data of publication PMC4615894.

The test deals with CENP-W (Xenopus (endogenous in egg extract)). The test is described as follows: co-IP.

Consider CENP-C (natural protein), for which the percent co-depleted turned out to be 80%.
